The text below walks through data of patent US20210054076A1 (Chugai, published 2021).

Assay [1] deals with T1, human CLDN6 (human, UniProt P56747 1-220).
T1 sequence: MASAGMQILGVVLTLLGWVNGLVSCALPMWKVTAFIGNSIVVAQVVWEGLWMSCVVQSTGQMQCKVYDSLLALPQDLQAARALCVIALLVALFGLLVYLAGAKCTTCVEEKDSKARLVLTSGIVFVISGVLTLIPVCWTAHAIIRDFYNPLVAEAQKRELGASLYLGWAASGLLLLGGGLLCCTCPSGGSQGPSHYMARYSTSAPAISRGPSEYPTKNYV
In words: cell-based or functional assay.

The target of assay [2] is T1, human CLDN6. The assay can be described thus: cell-based or functional assay. This is another data set of the same source.
For the next assay, the target named is T2, mouse CLDN4 (mouse, UniProt O35054 1-210).
T2 construct: whole, on cells; also called mCLDN4; BaF3_mCLDN4
T2 sequence (looked up): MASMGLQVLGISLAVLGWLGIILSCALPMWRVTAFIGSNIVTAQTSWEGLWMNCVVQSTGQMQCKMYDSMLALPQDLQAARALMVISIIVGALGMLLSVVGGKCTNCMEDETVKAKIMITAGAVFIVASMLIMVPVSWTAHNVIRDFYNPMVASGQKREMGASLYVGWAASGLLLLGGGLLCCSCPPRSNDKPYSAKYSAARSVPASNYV
In words: FACS on Ba/F3 transfectant, antibody 20 micro g/ml, FITC anti-human IgG. The procedure:
(§1) To evaluate the binding activity and specificity of the generated CLDN6-TRABs against CLDN6 and other Claudin family antigens, FACS analysis was conducted as follows. Ba/F3 transfectants stably express a kind of protein selected from human CLDN3 (hCLDN3), human CLDN4 (hCLDN4), human CLDN6 (hCLDN6), human CLDN9 (hCLDN9), mouse CLDN3 (mCLDN3), mouse CLDN4 (mCLDN4) and mouse CLDN6 (mCLDN6), were generated using similar method described in WO2008/087978, and named BaF3_hCLDN3, BaF3_hCLDN4, BaF3_hCLDN6, BaF3_hCLDN9, BaF3 mCLDN3, BaF3 mCLDN4, BaF3 mCLDN6, respectively. Each of the CLDN6-TRABs (CH01/CD3, CH02/CD3, CH03/CD3, CH04/CD3) was incubated with the Ba/F3 transfectants at an antibody concentration of 20 micro g/ml in FACS buffer (0.5% BSA containing autoMACS Rinsing Solution, Miltenyl Biotec). Binding activities of each CLDN6-TRAB to the Claudin family proteins (hCLDN3, hCLDN4, hCLDN6, hCLDN9, mCLDN3, mCLDN4, mCLDN6) were examined by incubation of FITC-conjugated goat anti human IgG (BeckmanCoulter), represented as Geo-mean value. Sample processing was conducted on FACSVerse (BD).
(§2) Claudin family proteins have two extracellular domains. The sequence of the first extracellular domain in human CLDN9 is almost the same compared with the first extracellular domain of human CLDN6. For the second extracellular domain of human CLDN9, there are only two amino acids different from the ones at their corresponding positions in human CLDN6 (FIG. 2). The glutamine at position 156 of human Claudin 6 (position 156 in the sequence shown in SEQ ID NO: 44 or 45) was substituted to leucine to make a human CLDN6 mutant comprising the same amino acid as human Claudin 9 at position 156. This human CLDN6 mutant was named as hCLDN6(Q156L) (SEQ ID NO: 53). Ba/F3 transfectant stably express hCLDN6(Q156L) was generated using similar method described in WO2008/087978. The established Ba/F3 transfectant was named BaF3_hCLDN6(Q156L). Binding activity of the generated CLDN6-TRABs against BaF3_hCLDN6(Q156L) was measured using the above mentioned FACS method and the results are shown in FIG. 1 and Table 3.

Another assay addresses T3, human CLDN4 (human, UniProt O14493 1-209).
T3 construct: whole, on cells; also called hCLDN4; BaF3_hCLDN4
T3 sequence (looked up): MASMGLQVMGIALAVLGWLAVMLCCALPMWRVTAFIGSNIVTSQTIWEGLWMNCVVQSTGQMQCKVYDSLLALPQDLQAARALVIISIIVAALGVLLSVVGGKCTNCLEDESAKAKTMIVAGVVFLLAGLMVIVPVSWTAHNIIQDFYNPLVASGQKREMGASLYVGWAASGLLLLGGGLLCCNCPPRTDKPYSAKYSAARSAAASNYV
The description is as above. The procedure:
as §1, §2

For another assay, the target named is T4, human CLDN3 (human, UniProt O15551 1-220).
T4 construct: whole, on cells; also called hCLDN3; BaF3_hCLDN3
T4 sequence (looked up): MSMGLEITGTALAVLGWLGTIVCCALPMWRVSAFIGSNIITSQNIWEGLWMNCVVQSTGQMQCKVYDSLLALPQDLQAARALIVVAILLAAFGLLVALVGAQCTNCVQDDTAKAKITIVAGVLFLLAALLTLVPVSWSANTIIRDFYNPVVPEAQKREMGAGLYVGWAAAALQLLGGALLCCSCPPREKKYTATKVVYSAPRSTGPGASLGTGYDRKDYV
The description is as above. As to the method: as §1, §2

The next assay deals with T5, mouse CLDN6 (mouse, UniProt Q9Z262 1-219).
T5 construct: whole, on cells; also called mCLDN6; BaF3_mCLDN6
T5 sequence (looked up): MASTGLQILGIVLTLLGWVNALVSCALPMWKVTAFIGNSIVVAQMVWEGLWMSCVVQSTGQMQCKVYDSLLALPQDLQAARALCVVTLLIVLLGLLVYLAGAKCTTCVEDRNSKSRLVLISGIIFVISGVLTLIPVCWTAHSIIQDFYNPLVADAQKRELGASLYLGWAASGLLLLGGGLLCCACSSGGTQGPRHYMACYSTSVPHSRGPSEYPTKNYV
Described as above. As to the method: as §1, §2

A further assay concerns the target T6, hCLDN6(Q156L) (human, UniProt P56747 1-220).
T6 construct: Stably expressed on Ba/F3 cells; also called human CLDN6 mutant; BaF3_hCLDN6(Q156L)
T6 chain: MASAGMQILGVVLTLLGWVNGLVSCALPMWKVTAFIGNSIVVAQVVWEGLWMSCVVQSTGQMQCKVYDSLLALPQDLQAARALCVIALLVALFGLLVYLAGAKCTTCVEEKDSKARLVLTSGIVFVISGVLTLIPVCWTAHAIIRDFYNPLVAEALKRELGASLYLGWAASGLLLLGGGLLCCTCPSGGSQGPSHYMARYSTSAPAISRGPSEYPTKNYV
Described as above. As to the method:
as §1, §2

B1: CH04/CD3 (bispecific antibody, human IgG1, kappa, N297A)
heavy 1: EVQLQQSGPELVKPGASMKISCKASGYSFTGYTMNWVKQSHGKNLEWIGLINPYNGGTIYNQKFKGKATLTVDKSSSTAYMELLSLTSEDSAVYYCARDYGFVLDYWGQGTTLTVSSASTKGPSVFPLAPSSKSTSGGTAALGCLVKDYFPEPVTVSWNSGALTSGVHTFPAVLQSSGLYSLSSVVTVPSSSLGTQTYICNVNHKPSNTKVDKKVEPKSCDKTHTCPPCPAPELRGGPKVFLFPPKPKDTLMISRTPEVTCVVVDVSHEDPEVKFNWYVDGVEVHNAKTKPREEQYASTYRVVSVLTVLHQDWLNGKEYKCKVSNKALPAPIEKTISKAKGQPREPQVYTLPPSREEMTKNQVSLTCLVKGFYPSDIAVEWESNGQPENNYKTTPPYLDSDGSFFLYSKLTVDKSRWQQGNVFSCSVMHEALHNHYTQESLSLSP
light 1: DIVLTQSPSIMSVSPGEKVTITCSASSSVSYMHWFQQKPGTSPKLCIYSTSNLASGVPARFSGRGSGTSYSLTISRVAAEDAATYYCQQRSNYPPWTFGGGTKLEIKRTVAAPSVFIFPPSDEQLKSGTASVVCLLNNFYPREAKVQWKVDNALQSGNSQESVTEQDSKDSTYSLSSTLTLSKADYEKHKVYACEVTHQGLSSPVTKSFNRGEC
heavy 2: QVQLVESGGGVVQPGGSLRLSCAASGFTFSNAWMHWVRQAPGKGLEWVAQIKDKSQNYATYVAESVKGRFTISRADSKNSIYLQMNSLKTEDTAVYYCRYVHYAAGYGVDIWGQGTTVTVSSASTKGPSVFPLAPSSKSTSGGTAALGCLVKDYFPEPVTVSWNSGALTSGVHTFPAVLQSSGLYSLSSVVTVPSSSLGTQTYICNVNHKPSNTKVDKKVEPKSCDKTHTCPPCPAPELRGGPKVFLFPPKPKDTLMISRTPEVTCVVVDVSHEDPEVKFNWYVDGVEVHNAKTKPREEQYASTYRVVSVLTVLHQDWLNGKEYKCKVSNKALPAPIEKTISKAKGQPREPQVYTLPPSRKEMTKNQVSLTCLVKGFYPSDIAVEWESNGQPENNYKTTPPYLDSDGSFFLYSKLTVDKSRWQQGNVFSCSVMHEALHNHYTQKSLSLSP
light 2: DIVMTQSPLSLPVTPGEPASISCRSSQPLVHSNRNTYLHWYQQKPGQAPRLLIYKVSNRFSGVPDRFSGSGSGTDFTLKISRVEAEDVGVYYCGQGTQVPYTFGQGTKLEIKRTVAAPSVFIFPPSDEQLKSGTASVVCLLNNFYPREAKVQWKVDNALQSGNSQESVTEQDSKDSTYSLSSTLTLSKADYEKHKVYACEVTHQGLSSPVTKSFNRGEC
notes: Made by Fab arm exchange of the bivalent anti-CLDN6 antibody CH04 with the bivalent anti-CD3 antibody CD3-1; human IgG1 constant region; One anti-CLDN6 arm and one anti-CD3 arm; also called CLDN6-TRAB; CLDN6-targeted T-cell redirecting bispecific antibody
With B1, in the assay with human CLDN6 [1], the “EC50 (read off the curve), Jurkat/NFAT-RE luciferase reporter, target cells ABC-1” value was ~0.06 nM. Moreover, the “EC50 (read off the curve), Jurkat/NFAT-RE luciferase reporter, target cells HuH-7” value with human CLDN6 [2] was ~0.08 nM. Further, the “Geo-mean value of FACS” value with mouse CLDN4 came to 23; in the assay with human CLDN4, 34; in the assay with human CLDN3 it was 36; with mouse CLDN6, 1790; with hCLDN6(Q156L) it was 80.
